Data taken from paper PMC6097439 (BMC Biology, 2018).
Positions count from the first letter of the chain named.

B1: Ang2-BDBC6, soluble protein (designed binder)
chain: FRDCAEVFKSGHTTNGIYTLREGRGDNVDIKAYCDMEAGGGGWTIIQRREDGSVDFQRTWKEYKVGFGNPSGEYWLGNEFVSQLTNQQRYVLKIHLKDWEGNEAYSLYEHFYLSSEELNYRIHLKGLTGTAGKISSISQPGNDFSTKDGDNDKCICKCSQMLTGGWWFDACGPSNLNGMYYPQRQNTNKFNGIKWYYWKGSGYSLKATTMMIRPADF
notes: also called Ang2-BD bi-specific variant; source: Pichia (Multi-Copy Pichia Expression Kit), purified from yeast culture supernatant (HisTrap, Superdex 200)
B2: Ang2-BDBC10, soluble protein (designed binder)
chain: B1 chain with R21Y, E22P, V28P
notes: as for B1
B3: Ang2-BDBC5, soluble protein (designed binder)
chain: B1 chain with R21N, E22T, G23C, N27C, V28L, D29P
notes: as for B1
B4: Ang2-BDWT, soluble protein (domain or fragment, UniProt O15123 281-496, looked up)
chain: FRDCAEVFKSGHTTNGIYTLTFPNSTEEIKAYCDMEAGGGGWTIIQRREDGSVDFQRTWKEYKVGFGNPSGEYWLGNEFVSQLTNQQRYVLKIHLKDWEGNEAYSLYEHFYLSSEELNYRIHLKGLTGTAGKISSISQPGNDFSTKDGDNDKCICKCSQMLTGGWWFDACGPSNLNGMYYPQRQNTNKFNGIKWYYWKGSGYSLKATTMMIRPADF
notes: The limits 281-496 are stated for the Ang2-BDWT gene; also called wild-type Ang2 BD; mono-specific Ang2-BDWT; source: Pichia (Multi-Copy Pichia Expression Kit), purified from yeast culture supernatant (HisTrap, Superdex 200)

Legend:
[1] = biological target: T1, recombinant αvβ3 integrin (human, UniProt P06756 31-992; P05106 27-718); experiment: SPR; αvβ3 integrin immobilized by amine coupling (GLC chip), 12.5 to 200 nM Ang2-BD variants as analytes, 25 °C, IBB; 1:1 Langmuir model; conditions: both partners purified
T1 construct: human integrin αv subunit (Phe31-Val992); human integrin β3 subunit (Gly27-Asp718); also called solubilized αvβ3 integrin; αvβ3 integrin extracellular domain; source: bought: R&D Systems

[2] = biological target: αvβ3 integrin expressed on TIME cells (human (endogenous in TIME cells), UniProt P06756 31-1048; P05106 27-788); experiment: cell-based or functional assay
[3] = biological target: Tie2 expressed on TIME cells (human (endogenous in TIME cells), UniProt Q02763 23-1124); experiment: cell-based or functional assay
[4] = biological target: T2, recombinant α5β1 integrin (human, UniProt P08648 42-995; P05556 21-728); experiment: SPR; integrins other than αvβ3 immobilized by amine coupling, 1 μM of the Ang2-BD variants as analyte, 25 °C, IBB; conditions: both partners purified
T2 construct: human integrin α5 subunit, extracellular domain; human integrin β1 subunit, extracellular domain; source: bought: R&D Systems

[5] = biological target: Tie2, immobilized for SPR (human, UniProt Q02763 23-1124, Limits of the immobilized Tie2 are not printed. Taken as the mature extracellular domain (the text says extracellular domain of rhTie2 in the dual SPR experiment), ending at Lys745 as in commercial rh); experiment: SPR; Tie2 immobilized, Ang2-BD variants as analytes; ProteOn XPR36; steady state fit; as previously described [54]; conditions: both partners purified
[6] = biological target: T3, recombinant αvβ6 integrin (human, UniProt P06756 31-992; P18564 22-709); experiment: SPR; αvβ5, αvβ1, αvβ6, αvβ8 integrins immobilized, 62.5 to 1000 nM Ang2-BDBC5 as analyte, 25 °C, IBB; two-state binding model; conditions: both partners purified
T3 construct: human integrin αv subunit, extracellular domain; human integrin β6 subunit, extracellular domain; source: bought: R&D Systems

[7] = biological target: T4, recombinant αvβ8 integrin (human, UniProt P06756 31-992; P26012 43-684); experiment: as above; conditions: both partners purified
T4 construct: human integrin αv subunit, extracellular domain; human integrin β8 subunit, extracellular domain; source: bought: R&D Systems

[8] = biological target: T5, recombinant αvβ5 integrin (human, UniProt P06756 31-992; P18084 24-719); experiment: as above; conditions: both partners purified
T5 construct: human integrin αv subunit, extracellular domain; human integrin β5 subunit, extracellular domain; source: bought: R&D Systems

[9] = biological target: T6, recombinant αvβ1 integrin (human, UniProt P06756 31-992; P05556 21-728); experiment: as above; conditions: both partners purified
T6 construct: human integrin αv subunit, extracellular domain; human integrin β1 subunit, extracellular domain; source: bought: R&D Systems
T6 sequence (P06756 31-992, chain 1 of 2): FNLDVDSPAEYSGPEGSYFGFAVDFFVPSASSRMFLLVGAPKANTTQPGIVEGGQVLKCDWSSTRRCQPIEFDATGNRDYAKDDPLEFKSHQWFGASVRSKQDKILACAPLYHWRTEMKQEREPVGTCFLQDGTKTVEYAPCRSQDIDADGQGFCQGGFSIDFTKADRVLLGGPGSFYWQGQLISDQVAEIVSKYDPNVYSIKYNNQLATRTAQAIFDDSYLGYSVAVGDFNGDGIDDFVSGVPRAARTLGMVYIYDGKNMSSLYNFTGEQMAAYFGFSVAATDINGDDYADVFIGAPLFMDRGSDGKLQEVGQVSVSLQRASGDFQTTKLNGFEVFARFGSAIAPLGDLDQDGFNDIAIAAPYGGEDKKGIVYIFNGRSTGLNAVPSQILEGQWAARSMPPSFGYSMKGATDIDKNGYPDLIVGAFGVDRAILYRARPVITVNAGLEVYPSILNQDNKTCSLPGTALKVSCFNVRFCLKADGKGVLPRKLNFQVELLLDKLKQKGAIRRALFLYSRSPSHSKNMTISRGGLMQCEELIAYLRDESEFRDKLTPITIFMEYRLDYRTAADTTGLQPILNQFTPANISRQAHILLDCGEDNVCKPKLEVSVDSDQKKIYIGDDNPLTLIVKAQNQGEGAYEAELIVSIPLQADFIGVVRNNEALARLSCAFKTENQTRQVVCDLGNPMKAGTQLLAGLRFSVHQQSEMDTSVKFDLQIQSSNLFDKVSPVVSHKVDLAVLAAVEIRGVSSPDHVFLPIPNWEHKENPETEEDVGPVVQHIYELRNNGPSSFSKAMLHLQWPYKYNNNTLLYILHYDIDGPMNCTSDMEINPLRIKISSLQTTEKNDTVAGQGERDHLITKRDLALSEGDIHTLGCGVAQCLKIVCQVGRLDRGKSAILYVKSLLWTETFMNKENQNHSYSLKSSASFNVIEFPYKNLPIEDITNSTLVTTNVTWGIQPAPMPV
T6 sequence (P05556 21-728, chain 2 of 2): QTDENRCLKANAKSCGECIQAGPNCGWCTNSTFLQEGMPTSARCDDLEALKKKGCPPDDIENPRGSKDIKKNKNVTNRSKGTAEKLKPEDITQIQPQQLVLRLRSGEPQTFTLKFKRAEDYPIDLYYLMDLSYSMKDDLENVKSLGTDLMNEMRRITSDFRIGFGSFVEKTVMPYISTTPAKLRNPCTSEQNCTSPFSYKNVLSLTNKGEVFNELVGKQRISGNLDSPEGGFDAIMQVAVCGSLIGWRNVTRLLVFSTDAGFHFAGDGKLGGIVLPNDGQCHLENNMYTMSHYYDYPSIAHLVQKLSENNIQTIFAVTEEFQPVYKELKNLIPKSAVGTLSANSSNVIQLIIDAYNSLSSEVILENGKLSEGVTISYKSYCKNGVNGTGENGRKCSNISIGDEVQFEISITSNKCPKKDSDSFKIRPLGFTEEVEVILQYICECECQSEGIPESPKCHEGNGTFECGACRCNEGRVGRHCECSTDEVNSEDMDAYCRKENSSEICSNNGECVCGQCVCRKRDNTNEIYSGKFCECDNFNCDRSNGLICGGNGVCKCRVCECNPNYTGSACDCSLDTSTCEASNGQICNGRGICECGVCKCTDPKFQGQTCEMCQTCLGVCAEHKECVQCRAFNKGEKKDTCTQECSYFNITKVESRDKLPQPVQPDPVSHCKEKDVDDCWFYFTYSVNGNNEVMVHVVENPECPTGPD

Sequence of Tie2, immobilized for SPR (Q02763 23-1124): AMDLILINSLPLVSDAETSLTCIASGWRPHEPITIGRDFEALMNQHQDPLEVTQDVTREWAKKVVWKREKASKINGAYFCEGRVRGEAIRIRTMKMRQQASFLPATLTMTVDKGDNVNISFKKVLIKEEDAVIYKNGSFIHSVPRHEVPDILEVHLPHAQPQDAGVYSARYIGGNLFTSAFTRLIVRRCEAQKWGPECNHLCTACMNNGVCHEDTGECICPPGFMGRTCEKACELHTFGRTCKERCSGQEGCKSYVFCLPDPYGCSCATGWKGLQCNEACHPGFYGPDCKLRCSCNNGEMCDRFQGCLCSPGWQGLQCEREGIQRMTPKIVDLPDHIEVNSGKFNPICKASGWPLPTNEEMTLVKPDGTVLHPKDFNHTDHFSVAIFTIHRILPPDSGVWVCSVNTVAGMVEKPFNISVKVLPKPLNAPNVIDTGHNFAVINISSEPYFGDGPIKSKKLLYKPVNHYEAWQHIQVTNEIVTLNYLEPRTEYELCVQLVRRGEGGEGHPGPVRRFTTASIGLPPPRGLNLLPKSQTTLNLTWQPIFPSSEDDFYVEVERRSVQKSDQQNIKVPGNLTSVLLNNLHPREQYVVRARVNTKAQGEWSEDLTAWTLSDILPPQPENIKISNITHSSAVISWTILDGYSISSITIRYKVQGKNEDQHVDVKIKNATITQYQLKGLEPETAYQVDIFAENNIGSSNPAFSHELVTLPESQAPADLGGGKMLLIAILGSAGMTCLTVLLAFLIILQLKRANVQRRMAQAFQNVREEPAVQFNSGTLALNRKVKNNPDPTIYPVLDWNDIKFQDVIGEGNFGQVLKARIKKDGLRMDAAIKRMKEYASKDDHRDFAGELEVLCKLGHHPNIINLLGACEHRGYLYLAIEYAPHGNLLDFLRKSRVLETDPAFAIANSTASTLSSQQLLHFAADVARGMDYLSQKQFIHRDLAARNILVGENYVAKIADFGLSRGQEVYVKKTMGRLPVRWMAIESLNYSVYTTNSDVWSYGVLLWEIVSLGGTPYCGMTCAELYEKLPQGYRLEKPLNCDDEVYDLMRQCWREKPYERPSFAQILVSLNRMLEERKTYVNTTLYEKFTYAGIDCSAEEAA
Sequence of Tie2 expressed on TIME cells (Q02763 23-1124): as above
T4 sequence (P06756 31-992, chain 1 of 2): as the sequence (P06756 31-992, chain 1 of 2) above
T4 sequence (P26012 43-684, chain 2 of 2): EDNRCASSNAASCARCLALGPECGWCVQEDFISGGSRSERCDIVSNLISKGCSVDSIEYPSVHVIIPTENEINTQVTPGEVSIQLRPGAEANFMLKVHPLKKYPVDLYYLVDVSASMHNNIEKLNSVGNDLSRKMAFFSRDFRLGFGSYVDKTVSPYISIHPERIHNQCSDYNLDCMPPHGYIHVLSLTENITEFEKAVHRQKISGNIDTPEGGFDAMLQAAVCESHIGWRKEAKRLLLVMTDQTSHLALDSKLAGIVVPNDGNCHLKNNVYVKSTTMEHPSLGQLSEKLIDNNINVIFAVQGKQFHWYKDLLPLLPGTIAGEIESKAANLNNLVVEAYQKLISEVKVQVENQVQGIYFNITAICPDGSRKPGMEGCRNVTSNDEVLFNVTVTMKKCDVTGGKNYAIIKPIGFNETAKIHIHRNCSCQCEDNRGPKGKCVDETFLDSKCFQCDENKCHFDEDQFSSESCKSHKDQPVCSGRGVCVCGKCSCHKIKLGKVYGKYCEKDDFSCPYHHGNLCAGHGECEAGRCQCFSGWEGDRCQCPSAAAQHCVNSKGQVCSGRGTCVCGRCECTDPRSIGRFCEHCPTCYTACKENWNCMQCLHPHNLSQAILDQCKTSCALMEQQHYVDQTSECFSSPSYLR
T1 sequence (P06756 31-992, chain 1 of 2): as the sequence (P06756 31-992, chain 1 of 2) above
T1 sequence (P05106 27-718, chain 2 of 2): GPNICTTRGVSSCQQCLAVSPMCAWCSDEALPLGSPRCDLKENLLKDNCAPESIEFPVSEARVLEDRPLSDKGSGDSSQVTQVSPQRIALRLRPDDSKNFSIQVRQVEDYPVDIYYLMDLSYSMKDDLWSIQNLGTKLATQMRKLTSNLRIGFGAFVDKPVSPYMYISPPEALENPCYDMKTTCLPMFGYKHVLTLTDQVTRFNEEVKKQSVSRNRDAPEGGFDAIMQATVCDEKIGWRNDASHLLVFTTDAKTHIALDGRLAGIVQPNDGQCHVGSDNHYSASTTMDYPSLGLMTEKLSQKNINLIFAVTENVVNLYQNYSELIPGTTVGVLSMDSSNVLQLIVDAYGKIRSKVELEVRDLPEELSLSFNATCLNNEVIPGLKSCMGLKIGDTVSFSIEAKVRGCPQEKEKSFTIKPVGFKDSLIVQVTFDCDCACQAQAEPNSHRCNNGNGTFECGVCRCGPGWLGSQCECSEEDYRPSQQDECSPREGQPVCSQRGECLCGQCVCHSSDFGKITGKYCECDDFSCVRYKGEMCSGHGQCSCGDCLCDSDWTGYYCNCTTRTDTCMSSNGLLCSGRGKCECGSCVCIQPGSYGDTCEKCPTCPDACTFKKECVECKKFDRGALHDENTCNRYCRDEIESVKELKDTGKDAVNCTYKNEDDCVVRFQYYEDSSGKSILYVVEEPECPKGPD
T5 sequence (P06756 31-992, chain 1 of 2): as the sequence (P06756 31-992, chain 1 of 2) above
T5 sequence (P18084 24-719, chain 2 of 2): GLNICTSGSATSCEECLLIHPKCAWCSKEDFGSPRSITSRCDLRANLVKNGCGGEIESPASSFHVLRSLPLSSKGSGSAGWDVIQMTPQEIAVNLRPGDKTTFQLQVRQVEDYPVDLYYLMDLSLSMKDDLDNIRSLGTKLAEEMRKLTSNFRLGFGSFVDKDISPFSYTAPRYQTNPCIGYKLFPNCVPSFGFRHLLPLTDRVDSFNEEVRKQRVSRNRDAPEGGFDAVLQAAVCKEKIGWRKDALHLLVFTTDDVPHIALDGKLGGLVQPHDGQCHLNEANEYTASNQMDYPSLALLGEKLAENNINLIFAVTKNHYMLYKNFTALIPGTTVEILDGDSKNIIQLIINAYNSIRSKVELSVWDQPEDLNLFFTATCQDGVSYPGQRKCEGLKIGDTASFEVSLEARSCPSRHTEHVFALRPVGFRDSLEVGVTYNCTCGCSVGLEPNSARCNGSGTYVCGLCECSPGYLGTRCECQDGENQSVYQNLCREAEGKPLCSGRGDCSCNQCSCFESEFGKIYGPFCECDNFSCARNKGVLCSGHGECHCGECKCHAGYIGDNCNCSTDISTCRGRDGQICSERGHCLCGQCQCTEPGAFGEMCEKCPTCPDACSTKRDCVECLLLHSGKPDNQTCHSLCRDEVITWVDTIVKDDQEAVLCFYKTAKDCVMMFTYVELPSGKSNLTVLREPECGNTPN

| Binder | Kd [1] [µM] | koff [1] [s⁻¹] | kon [1] [M⁻¹ s⁻¹] | decrease in adhesion of TIME cells to vitronectin-coated plates, 1 μM variant, with 500 ng/ml FL-Ang1 (blocks αvβ3 integrin on vitronectin) [2] [%] | decrease in adhesion of TIME cells to vitronectin-coated plates, 1 μM variant, without FL-Ang1 (blocks αvβ3 integrin on vitronectin) [2] [%] | decrease in Tie2 phosphorylation intensity, TIME cells on vitronectin, 500 ng/ml FL-Ang1 with 1 μM variant (blocks FL-Ang1 on Tie2) [3] [%] | binding result [4] | Kd [5] [µM] | further results |
| --- | --- | --- | --- | --- | --- | --- | --- | --- | --- |
| B1 | 0.00297 | 0.000236 | 79400 | 35 | 39 | 64 | binds | 1.26 |  |
| B2 | 0.00417 | 0.000429 | 103000 | 37 | 47 | 67 | binds | 0.95 |  |
| B3 | 0.0149 | 0.000444 | 29900 | 53 | 30 | 67 | binds | 1.36 | Kd [6]: 0.364 µM; Koff1 (two-state model, step 1) [6]: 0.00835 s⁻¹; Koff2 (two-state model, step 2) [6]: 0.00106 s⁻¹; Kon1 (two-state model, step 1) [6]: 22900 M⁻¹ s⁻¹; Kon2 (two-state model, step 2) [6]: 0.0032 s⁻¹; Kd [7]: 0.138 µM; Koff1 (two-state model, step 1) [7]: 0.00505 s⁻¹; Koff2 (two-state model, step 2) [7]: 0.00215 s⁻¹; Kon1 (two-state model, step 1) [7]: 36600 M⁻¹ s⁻¹; Kon2 (two-state model, step 2) [7]: 0.0024 s⁻¹; Kd [8]: 0.065 µM; Koff1 (two-state model, step 1) [8]: 0.00259 s⁻¹; Koff2 (two-state model, step 2) [8]: 0.00035 s⁻¹; Kon1 (two-state model, step 1) [8]: 39800 M⁻¹ s⁻¹; Kon2 (two-state model, step 2) [8]: 0.00544 s⁻¹; Kd [9]: 0.55 µM; Koff1 (two-state model, step 1) [9]: 0.00629 s⁻¹; Koff2 (two-state model, step 2) [9]: 0.00197 s⁻¹; Kon1 (two-state model, step 1) [9]: 11400 M⁻¹ s⁻¹; Kon2 (two-state model, step 2) [9]: 0.00304 s⁻¹ |
| B4 |  |  |  |  |  |  |  | 0.66 |  |
